Experimental data as given in the supplement of paper PMC9112550, “Optimization of the antimicrobial peptide Bac7 by deep mutational scanning” (BMC Biology, 2022).

System: Escherichia coli TOP10
Experiment: shrunken log2 fold change of peptide-encoding DNA abundance (4.5 h post-induction vs induction); higher = less antimicrobial activity (less host growth inhibition)
Settings: time post-induction: 4.5 h; library: site-saturation at positions 5, 18, 19, 20
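Further: peptides expressed intracellularly from a pBAD plasmid library in pooled LB shake-flask culture, induced with 0.3% L-arabinose, DNA abundance read by NGS, three biological replicates, DESeq2 with apeglm shrinkage.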

RRIRFRPPRLPRPRPRPPMNPRP
shrunken log2 fold change: -0.0762

RRIRHRPPRLPRPRPRPPVEPRP
shrunken log2 fold change: 0.126

RRIRCRPPRLPRPRPRPDQLPRP
shrunken log2 fold change: 0.101

RRIRGRPPRLPRPRPRPATPPRP
shrunken log2 fold change: 1.83

RRIRIRPPRLPRPRPRPNGMPRP
shrunken log2 fold change: -0.0985

RRIRARPPRLPRPRPRPNYGPRP
shrunken log2 fold change: -0.24

RRIRERPPRLPRPRPRPAEMPRP
shrunken log2 fold change: -0.0352

RRIRTRPPRLPRPRPRPKAAPRP
shrunken log2 fold change: 0.565

RRIRMRPPRLPRPRPRPQVQPRP
shrunken log2 fold change: -0.000946

RRIRRRPPRLPRPRPRPWMRPRP
shrunken log2 fold change: 0.172

RRIRARPPRLPRPRPRPPWPPRP
shrunken log2 fold change: 0.738

RRIRFRPPRLPRPRPRPLATPRP
shrunken log2 fold change: -0.00506

RRIRIRPPRLPRPRPRPFDHPRP
shrunken log2 fold change: -0.225

RRIRMRPPRLPRPRPRPEKIPRP
shrunken log2 fold change: 0.856

RRIRDRPPRLPRPRPRPCFTPRP
shrunken log2 fold change: 0.0373

RRIRDRPPRLPRPRPRPSTDPRP
shrunken log2 fold change: 0.0145

RRIRKRPPRLPRPRPRPLNEPRP
shrunken log2 fold change: 0.0114

RRIRERPPRLPRPRPRPFSVPRP
shrunken log2 fold change: -0.213

RRIRIRPPRLPRPRPRPFWGPRP
shrunken log2 fold change: -0.139

RRIRGRPPRLPRPRPRPFRWPRP
shrunken log2 fold change: 0.053

RRIRRRPPRLPRPRPRPTGNPRP
shrunken log2 fold change: 0.0381

RRIRDRPPRLPRPRPRPMTWPRP
shrunken log2 fold change: 0.000751

RRIRTRPPRLPRPRPRPWGMPRP
shrunken log2 fold change: -0.126

RRIRCRPPRLPRPRPRPAYFPRP
shrunken log2 fold change: -0.361

RRIRVRPPRLPRPRPRPLRKPRP
shrunken log2 fold change: 0.317

RRIRGRPPRLPRPRPRPRTKPRP
shrunken log2 fold change: 0.942

RRIRSRPPRLPRPRPRPKRCPRP
shrunken log2 fold change: -0.0384

RRIRSRPPRLPRPRPRPYDTPRP
shrunken log2 fold change: -0.532

RRIRRRPPRLPRPRPRPREIPRP
shrunken log2 fold change: 0.479

RRIRDRPPRLPRPRPRPKCSPRP
shrunken log2 fold change: 0.243

RRIRIRPPRLPRPRPRPCMAPRP
shrunken log2 fold change: -0.335

RRIRPRPPRLPRPRPRPQRPPRP
shrunken log2 fold change: 0.272

RRIRHRPPRLPRPRPRPTESPRP
shrunken log2 fold change: 0.0139

RRIRFRPPRLPRPRPRPTIEPRP
shrunken log2 fold change: -0.037

RRIRERPPRLPRPRPRPRFNPRP
shrunken log2 fold change: -0.453

RRIRDRPPRLPRPRPRPLRGPRP
shrunken log2 fold change: 0.112

RRIRERPPRLPRPRPRPHNAPRP
shrunken log2 fold change: -0.192

RRIRERPPRLPRPRPRPLYQPRP
shrunken log2 fold change: -0.176

RRIRRRPPRLPRPRPRPIHLPRP
shrunken log2 fold change: -0.0465

RRIRMRPPRLPRPRPRPAGKPRP
shrunken log2 fold change: 0.461

RRIRQRPPRLPRPRPRPECYPRP
shrunken log2 fold change: 0.0583

RRIRERPPRLPRPRPRPKAMPRP
shrunken log2 fold change: 0.282

RRIRYRPPRLPRPRPRPVCRPRP
shrunken log2 fold change: -0.0607

RRIRKRPPRLPRPRPRPYKMPRP
shrunken log2 fold change: -0.47

RRIRGRPPRLPRPRPRPSDFPRP
shrunken log2 fold change: 0.0231

RRIRDRPPRLPRPRPRPHPEPRP
shrunken log2 fold change: 0.004

RRIRIRPPRLPRPRPRPRSHPRP
shrunken log2 fold change: -0.287

RRIRHRPPRLPRPRPRPLLRPRP
shrunken log2 fold change: 0.0548

RRIRWRPPRLPRPRPRPWTAPRP
shrunken log2 fold change: 0.306

RRIRERPPRLPRPRPRPPHTPRP
shrunken log2 fold change: -0.152

RRIRERPPRLPRPRPRPADLPRP
shrunken log2 fold change: -0.175

RRIRERPPRLPRPRPRPFNYPRP
shrunken log2 fold change: -0.273

RRIRGRPPRLPRPRPRPKEKPRP
shrunken log2 fold change: 0.0377

RRIRCRPPRLPRPRPRPLDAPRP
shrunken log2 fold change: 0.123

RRIRQRPPRLPRPRPRPHFDPRP
shrunken log2 fold change: -0.000826

RRIRARPPRLPRPRPRPRFPPRP
shrunken log2 fold change: 0.421

RRIRGRPPRLPRPRPRPVAYPRP
shrunken log2 fold change: 0.0402

RRIRPRPPRLPRPRPRPLYGPRP
shrunken log2 fold change: 0.0853

RRIRNRPPRLPRPRPRPSIKPRP
shrunken log2 fold change: -0.0594

RRIRPRPPRLPRPRPRPDCTPRP
shrunken log2 fold change: -0.167

RRIRVRPPRLPRPRPRPLITPRP
shrunken log2 fold change: -0.439

RRIRARPPRLPRPRPRPETEPRP
shrunken log2 fold change: 1.39

RRIRERPPRLPRPRPRPKWVPRP
shrunken log2 fold change: -0.0367

RRIRQRPPRLPRPRPRPSRLPRP
shrunken log2 fold change: 0.101

RRIRTRPPRLPRPRPRPWRSPRP
shrunken log2 fold change: -0.0438

RRIRVRPPRLPRPRPRPDLAPRP
shrunken log2 fold change: 3.31

RRIRFRPPRLPRPRPRPYTCPRP
shrunken log2 fold change: -0.22

RRIRSRPPRLPRPRPRPENIPRP
shrunken log2 fold change: -0.278

RRIRLRPPRLPRPRPRPCNPPRP
shrunken log2 fold change: -0.000687

RRIRLRPPRLPRPRPRPAWIPRP
shrunken log2 fold change: 0.0321

RRIRSRPPRLPRPRPRPGFRPRP
shrunken log2 fold change: 0.165

RRIRNRPPRLPRPRPRPTATPRP
shrunken log2 fold change: 0.433

RRIRSRPPRLPRPRPRPVEAPRP
shrunken log2 fold change: -0.0651

RRIRGRPPRLPRPRPRPTTWPRP
shrunken log2 fold change: 0.521

RRIRCRPPRLPRPRPRPFEVPRP
shrunken log2 fold change: -0.152

RRIRLRPPRLPRPRPRPEIYPRP
shrunken log2 fold change: -0.0581

RRIRQRPPRLPRPRPRPFAWPRP
shrunken log2 fold change: -0.0355

RRIRYRPPRLPRPRPRPGLFPRP
shrunken log2 fold change: -0.0365

RRIRKRPPRLPRPRPRPTTKPRP
shrunken log2 fold change: -0.0244

RRIRCRPPRLPRPRPRPQHWPRP
shrunken log2 fold change: 0.102

RRIRMRPPRLPRPRPRPYCAPRP
shrunken log2 fold change: -0.515

RRIRARPPRLPRPRPRPHCHPRP
shrunken log2 fold change: -0.195

RRIRYRPPRLPRPRPRPNSQPRP
shrunken log2 fold change: -0.85

RRIRVRPPRLPRPRPRPQYEPRP
shrunken log2 fold change: -0.174

RRIRRRPPRLPRPRPRPPTYPRP
shrunken log2 fold change: 0.0139

RRIRGRPPRLPRPRPRPRYGPRP
shrunken log2 fold change: 0.134

RRIRLRPPRLPRPRPRPYVDPRP
shrunken log2 fold change: -0.0393

RRIRKRPPRLPRPRPRPFGQPRP
shrunken log2 fold change: 0.783

RRIRTRPPRLPRPRPRPYSWPRP
shrunken log2 fold change: -0.118

RRIRQRPPRLPRPRPRPEDLPRP
shrunken log2 fold change: 0.125

RRIRVRPPRLPRPRPRPKCKPRP
shrunken log2 fold change: -0.191

RRIRTRPPRLPRPRPRPGALPRP
shrunken log2 fold change: 0.00437

RRIRSRPPRLPRPRPRPYVYPRP
shrunken log2 fold change: -0.852

RRIRPRPPRLPRPRPRPWARPRP
shrunken log2 fold change: 0.0379

RRIRTRPPRLPRPRPRPLPIPRP
shrunken log2 fold change: -0.0647

RRIRCRPPRLPRPRPRPMYEPRP
shrunken log2 fold change: -0.264

RRIRKRPPRLPRPRPRPAYHPRP
shrunken log2 fold change: -0.144

RRIRTRPPRLPRPRPRPNNFPRP
shrunken log2 fold change: -0.381

RRIRFRPPRLPRPRPRPGCWPRP
shrunken log2 fold change: 0.524

RRIRLRPPRLPRPRPRPIYTPRP
shrunken log2 fold change: -0.377

RRIRGRPPRLPRPRPRPSRLPRP
shrunken log2 fold change: 0.204

RRIRDRPPRLPRPRPRPSDCPRP
shrunken log2 fold change: -0.482

RRIRQRPPRLPRPRPRPNECPRP
shrunken log2 fold change: 0.033

RRIRMRPPRLPRPRPRPRLYPRP
shrunken log2 fold change: 0.212

RRIRGRPPRLPRPRPRPMVVPRP
shrunken log2 fold change: 0.434

RRIRERPPRLPRPRPRPARIPRP
shrunken log2 fold change: -0.246

RRIRKRPPRLPRPRPRPIDPPRP
shrunken log2 fold change: -0.0828

RRIRERPPRLPRPRPRPIGNPRP
shrunken log2 fold change: -0.134

RRIRIRPPRLPRPRPRPGWSPRP
shrunken log2 fold change: 0.312

RRIRKRPPRLPRPRPRPQEGPRP
shrunken log2 fold change: -0.00136

RRIRTRPPRLPRPRPRPLEDPRP
shrunken log2 fold change: -0.163

RRIRLRPPRLPRPRPRPSEPPRP
shrunken log2 fold change: -0.114

RRIRQRPPRLPRPRPRPYLGPRP
shrunken log2 fold change: -0.0158

RRIRMRPPRLPRPRPRPFDQPRP
shrunken log2 fold change: 0.00237

RRIRRRPPRLPRPRPRPWVNPRP
shrunken log2 fold change: -0.0334

RRIRGRPPRLPRPRPRPEVVPRP
shrunken log2 fold change: 0.918

RRIRERPPRLPRPRPRPFLCPRP
shrunken log2 fold change: -0.143

RRIRIRPPRLPRPRPRPVIHPRP
shrunken log2 fold change: -0.248

RRIRTRPPRLPRPRPRPMHSPRP
shrunken log2 fold change: 0.02

RRIRARPPRLPRPRPRPRRKPRP
shrunken log2 fold change: 0.644

RRIRFRPPRLPRPRPRPPCFPRP
shrunken log2 fold change: -0.0777

RRIRSRPPRLPRPRPRPWGNPRP
shrunken log2 fold change: -0.236

RRIRHRPPRLPRPRPRPKVTPRP
shrunken log2 fold change: -0.62

RRIRLRPPRLPRPRPRPWSAPRP
shrunken log2 fold change: 0.539

RRIRQRPPRLPRPRPRPWICPRP
shrunken log2 fold change: 0.117
